To fix the notation:
B1: mRNA-splicing (parent)
chain: AGUUGCUGCUGGGAGCUCCAGCACAGUGAAAUGGACAGAAGGGCAGAGCAA

The values below come from the RNAGym collection of RNA variant scans (doi:10.1101/gr.219683.116).

Variants of B1 are the subject of the data set. In words: exon inclusion enrichment index; higher = more inclusion; WT1 exon 5 minigene, HEK293.
For the variant AGUUACCACCGCUAGCUCCAGCACAGUGAAAUGGACAGAAGGGCAGAGCAA [G5A U7C G8A U10C G12C G13U], the “exon inclusion enrichment index” value was 0.139.
As to AGUUACCACCGGGAGCUCCAGCACAGUGAAAUGAGCAGAAGGGCAGAGCAA [G5A U7C G8A U10C G34A A35G], the “exon inclusion enrichment index” value was 1.09.
In the case of AGUUACCACCGGGAGCUCCAGCACAGUGAAAUGAUCAGAAGGGCAGAGCAA [G5A U7C G8A U10C G34A A35U], the “exon inclusion enrichment index” value amounted to 0.813.
Take AGUUACCACCGGGAGCUCCAGCACAGUGAAAUGACCAGAAGGGCAGAGCAA [G5A U7C G8A U10C G34A A35C]: the “exon inclusion enrichment index” value was determined as 1.83.
For the variant AGUUACCACCGGCCGCUCCAGCACAGUGAAAUGGACAGAAGGGCAGAGCAA [G5A U7C G8A U10C G13C A14C], the “exon inclusion enrichment index” value worked out at 1.19.
As to AGUUACCACCGGCGGCUCCAGCACAGUGAAAUGGACAGAAGGGCAGAGCAA [G5A U7C G8A U10C G13C A14G], the “exon inclusion enrichment index” value was determined as 1.71.
With AGUUACCACCGGCUGCUCCAGCACAGUGAAAUGGACAGAAGGGCAGAGCAA [G5A U7C G8A U10C G13C A14U], the “exon inclusion enrichment index” value came to 1.45.
For AGUUACCACCGGGAGCUCCAGCACAAAGAAAUGGACAGAAGGGCAGAGCAA [G5A U7C G8A U10C G26A U27A], the “exon inclusion enrichment index” value was 2.4.
With AGUUACCACCGGGAGCUCCAGCACAAGGAAAUGGACAGAAGGGCAGAGCAA [G5A U7C G8A U10C G26A U27G], the “exon inclusion enrichment index” value was found to be 2.93.
Then AGUUACCACCGGGAGCUCCAGCACAACGAAAUGGACAGAAGGGCAGAGCAA [G5A U7C G8A U10C G26A U27C], with 3.43; and AGUUACCACCUAGAGCUCCAGCACAGUGAAAUGGACAGAAGGGCAGAGCAA [G5A U7C G8A U10C G11U G12A], with 0.117; and AGUUACCACCUCGAGCUCCAGCACAGUGAAAUGGACAGAAGGGCAGAGCAA [G5A U7C G8A U10C G11U G12C], with 0.738.
For AGUUACCACCUUGAGCUCCAGCACAGUGAAAUGGACAGAAGGGCAGAGCAA [G5A U7C G8A U10C G11U G12U], the “exon inclusion enrichment index” value came to 0.337.
The result for AGUUACCACCGGGAGCUCCAGCACAGUCUAAUGGACAGAAGGGCAGAGCAA [G5A U7C G8A U10C G28C A29U] reads 1.13; that for AGUUACCACCGGGAGCUCCAGCACAGUCCAAUGGACAGAAGGGCAGAGCAA [G5A U7C G8A U10C G28C A29C], 1.72; that for AGUUACCACCGGGAGCUCCAGCACAGUCGAAUGGACAGAAGGGCAGAGCAA [G5A U7C G8A U10C G28C A29G], 3.25.
On to AGUUACCACCGGGAGCUCCAUCACAGUGAAAUGGACAGAAGGGCAGAGCAA [G5A U7C G8A U10C G21U], for which the “exon inclusion enrichment index” value was found to be 1.92.
On to AGUUACCACCGGGAGCUCCAACACAGUGAAAUGGACAGAAGGGCAGAGCAA [G5A U7C G8A U10C G21A], for which the “exon inclusion enrichment index” value amounted to 1.67.
As for AGUUACCACCGGGAGCUCCACCACAGUGAAAUGGACAGAAGGGCAGAGCAA [G5A U7C G8A U10C G21C], the “exon inclusion enrichment index” value came out at 2.25.
As to AGUUACCACCGGGAGCUCCAGCACAGUGAAAUCGACAGAAGGGCAGAGCAA [G5A U7C G8A U10C G33C], the “exon inclusion enrichment index” value came to 2.65.
AGUUACCACCGGGAGCUCCAGCACAGUGAAAUAGACAGAAGGGCAGAGCAA [G5A U7C G8A U10C G33A]: the “exon inclusion enrichment index” value was 0.235.
The result for AGUUACCACCGGGAGCUCCAGCACAGUGAAAUUGACAGAAGGGCAGAGCAA [G5A U7C G8A U10C G33U] reads 0.998; that for AGUUACCACCGGGAGCUCCAGCACAGUAAAAUGGACAGAAGGGCAGAGCAA [G5A U7C G8A U10C G28A], 0.733.
Then AGUUACCACCGGGAGCUCCAGCACAGUUAAAUGGACAGAAGGGCAGAGCAA [G5A U7C G8A U10C G28U], with 0.556; and AGUUACCACCGGGAGCUCCAGCACAGUCAAAUGGACAGAAGGGCAGAGCAA [G5A U7C G8A U10C G28C], with 1.68; and AGUUACCACCGUGAGCUCCAGCACAGUGAAAUGGACAGAAGGGCAGAGCAA [G5A U7C G8A U10C G12U], with 1.13.
As for AGUUACCACCGAGAGCUCCAGCACAGUGAAAUGGACAGAAGGGCAGAGCAA [G5A U7C G8A U10C G12A], the “exon inclusion enrichment index” value was 1.48.
The result for AGUUACCACCGCGAGCUCCAGCACAGUGAAAUGGACAGAAGGGCAGAGCAA [G5A U7C G8A U10C G12C] reads 1.57; that for AGUUACCACCCUGAGCUCCAGCACAGUGAAAUGGACAGAAGGGCAGAGCAA [G5A U7C G8A U10C G11C G12U], 0.353; that for AGUUACCACCCCGAGCUCCAGCACAGUGAAAUGGACAGAAGGGCAGAGCAA [G5A U7C G8A U10C G11C G12C], 0.415.
Turning to AGUUACCACCGGGAGCUCCAGCACAGUGAAAUGUGCAGAAGGGCAGAGCAA [G5A U7C G8A U10C G34U A35G], the “exon inclusion enrichment index” value was 0.753.
Turning to AGUUACCACCGGGAGCUCCAGCACAGUGAAAUGUCCAGAAGGGCAGAGCAA [G5A U7C G8A U10C G34U A35C], the “exon inclusion enrichment index” value stood at 0.726.
In the case of AGUUACCACCGGGAGCUCCAGCACAGUGAAAUGUUCAGAAGGGCAGAGCAA [G5A U7C G8A U10C G34U A35U], the “exon inclusion enrichment index” value is 0.441.
Then AGUUACCACCGGGAGCUCCAGCACAGUGAAAUGAACAGAAGGGCAGAGCAA [G5A U7C G8A U10C G34A], with 1.51; and AGUUACCACCGGGAGCUCCAGCACAGUGAAAUGUACAGAAGGGCAGAGCAA [G5A U7C G8A U10C G34U], with 0.607; and AGUUACCACCGGGAGCUCCAGCACAGUGAAAUGCACAGAAGGGCAGAGCAA [G5A U7C G8A U10C G34C], with 0.949.
AGUUACCACCGGGAGCUCCAGCACAGUGAAAUCUACAGAAGGGCAGAGCAA [G5A U7C G8A U10C G33C G34U]: the “exon inclusion enrichment index” value turned out to be 1.72.
Turning to AGUUACCACCGGGAGCUCCAGCACAGUGAAAUCAACAGAAGGGCAGAGCAA [G5A U7C G8A U10C G33C G34A], the “exon inclusion enrichment index” value worked out at 1.53.
Turning to AGUUACCACCGGGAGCUCCAGCACAGUGAAAUCCACAGAAGGGCAGAGCAA [G5A U7C G8A U10C G33C G34C], the “exon inclusion enrichment index” value was 1.34.
As for AGUUACCACCGGGAGCUCCAGCACAGUGAAAUACACAGAAGGGCAGAGCAA [G5A U7C G8A U10C G33A G34C], the “exon inclusion enrichment index” value came out at 0.421.
In the case of AGUUACCACCGGGAGCUCCAGCACAGUGAAAUAUACAGAAGGGCAGAGCAA [G5A U7C G8A U10C G33A G34U], the “exon inclusion enrichment index” value is 0.361.
Regarding AGUUACCACCGGGAGCUCCAGCACAGUGAAAUAAACAGAAGGGCAGAGCAA [G5A U7C G8A U10C G33A G34A], the “exon inclusion enrichment index” value came to 0.398.
AGUUACCACCGGGAGCUCCAGCACAUCGAAAUGGACAGAAGGGCAGAGCAA [G5A U7C G8A U10C G26U U27C]: the “exon inclusion enrichment index” value was found to be 3.63.
For AGUUACCACCGGGAGCUCCAGCACAUAGAAAUGGACAGAAGGGCAGAGCAA [G5A U7C G8A U10C G26U U27A], the “exon inclusion enrichment index” value was determined as 1.08.
In the case of AGUUACCACCGGGAGCUCCAGCACAUGGAAAUGGACAGAAGGGCAGAGCAA [G5A U7C G8A U10C G26U U27G], the “exon inclusion enrichment index” value stood at 3.47.
For the variant AGUUACCACCGGGAGCUCCAAGACAGUGAAAUGGACAGAAGGGCAGAGCAA [G5A U7C G8A U10C G21A C22G], the “exon inclusion enrichment index” value came out at 2.31.
Then AGUUACCACCGGGAGCUCCAAAACAGUGAAAUGGACAGAAGGGCAGAGCAA [G5A U7C G8A U10C G21A C22A], with 1.09; and AGUUACCACCGGGAGCUCCAAUACAGUGAAAUGGACAGAAGGGCAGAGCAA [G5A U7C G8A U10C G21A C22U], with 1.26; and AGUUACCACCGUAAGCUCCAGCACAGUGAAAUGGACAGAAGGGCAGAGCAA [G5A U7C G8A U10C G12U G13A], with 0.238.
Then AGUUACCACCGUUAGCUCCAGCACAGUGAAAUGGACAGAAGGGCAGAGCAA [G5A U7C G8A U10C G12U G13U], with 0.053.
The result for AGUUACCACCGUCAGCUCCAGCACAGUGAAAUGGACAGAAGGGCAGAGCAA [G5A U7C G8A U10C G12U G13C] reads 0.477.
